This note sets out measurements from US20180155451A1 (published 2018).

B1: GpH7-A5/GpH7-B3 variant Q295_13S/GpL16-k0 (He Ab) (antibody, human IgG1, kappa)
heavy 1: not shown
heavy 2: not shown
light: DIVMTQSPLSLPVTPGEPASISCQASESLVHSNRNTYLHWYLQKPGQSPQLLIYKVSNRFSGVPDRFSGSGSGTDFTLKISRVEAEDVGVYYCSQNTHVPPTFGQGTKVEIERTVAAPSVFIFPPSDEQLKSGTASVVCLLNNFYPREAKVQWKVDNALQSGNSQESVTEQDSKDSTYSLSSTLTLSKADYEKHKVYACEVTHQGLSSPVTKSFNRGEC
notes: He Ab: alteration only in the GpH7-B3 chain
B2: GpH7-A5/GpH7-B3 variant S267_02A/GpL16-k0 (He Ab) (antibody, human IgG1, kappa)
heavy 1: not shown
heavy 2: not shown
light: DIVMTQSPLSLPVTPGEPASISCQASESLVHSNRNTYLHWYLQKPGQSPQLLIYKVSNRFSGVPDRFSGSGSGTDFTLKISRVEAEDVGVYYCSQNTHVPPTFGQGTKVEIERTVAAPSVFIFPPSDEQLKSGTASVVCLLNNFYPREAKVQWKVDNALQSGNSQESVTEQDSKDSTYSLSSTLTLSKADYEKHKVYACEVTHQGLSSPVTKSFNRGEC
notes: as for B1
B3: GpH7-A5/GpH7-B3 variant S267_09D/GpL16-k0 (He Ab) (antibody, human IgG1, kappa)
heavy 1: not shown
heavy 2: not shown
light: DIVMTQSPLSLPVTPGEPASISCQASESLVHSNRNTYLHWYLQKPGQSPQLLIYKVSNRFSGVPDRFSGSGSGTDFTLKISRVEAEDVGVYYCSQNTHVPPTFGQGTKVEIERTVAAPSVFIFPPSDEQLKSGTASVVCLLNNFYPREAKVQWKVDNALQSGNSQESVTEQDSKDSTYSLSSTLTLSKADYEKHKVYACEVTHQGLSSPVTKSFNRGEC
notes: as for B1
B4: GpH7-A5/GpH7-B3 variant P271_11K/GpL16-k0 (He Ab) (antibody, human IgG1, kappa)
heavy 1: not shown
heavy 2: not shown
light: DIVMTQSPLSLPVTPGEPASISCQASESLVHSNRNTYLHWYLQKPGQSPQLLIYKVSNRFSGVPDRFSGSGSGTDFTLKISRVEAEDVGVYYCSQNTHVPPTFGQGTKVEIERTVAAPSVFIFPPSDEQLKSGTASVVCLLNNFYPREAKVQWKVDNALQSGNSQESVTEQDSKDSTYSLSSTLTLSKADYEKHKVYACEVTHQGLSSPVTKSFNRGEC
notes: as for B1
B5: GpH7-A5/GpH7-B3 variant S239_09D/GpL16-k0 (He Ab) (antibody, human IgG1, kappa)
heavy 1: not shown
heavy 2: not shown
light: DIVMTQSPLSLPVTPGEPASISCQASESLVHSNRNTYLHWYLQKPGQSPQLLIYKVSNRFSGVPDRFSGSGSGTDFTLKISRVEAEDVGVYYCSQNTHVPPTFGQGTKVEIERTVAAPSVFIFPPSDEQLKSGTASVVCLLNNFYPREAKVQWKVDNALQSGNSQESVTEQDSKDSTYSLSSTLTLSKADYEKHKVYACEVTHQGLSSPVTKSFNRGEC
notes: as for B1
B6: GpH7-A5/GpH7-B3 variant P271_20W/GpL16-k0 (He Ab) (antibody, human IgG1, kappa)
heavy 1: not shown
heavy 2: not shown
light: DIVMTQSPLSLPVTPGEPASISCQASESLVHSNRNTYLHWYLQKPGQSPQLLIYKVSNRFSGVPDRFSGSGSGTDFTLKISRVEAEDVGVYYCSQNTHVPPTFGQGTKVEIERTVAAPSVFIFPPSDEQLKSGTASVVCLLNNFYPREAKVQWKVDNALQSGNSQESVTEQDSKDSTYSLSSTLTLSKADYEKHKVYACEVTHQGLSSPVTKSFNRGEC
notes: as for B1
B7: GpH7-A5/GpH7-B3 variant Q295_07I/GpL16-k0 (He Ab) (antibody, human IgG1, kappa)
heavy 1: not shown
heavy 2: not shown
light: DIVMTQSPLSLPVTPGEPASISCQASESLVHSNRNTYLHWYLQKPGQSPQLLIYKVSNRFSGVPDRFSGSGSGTDFTLKISRVEAEDVGVYYCSQNTHVPPTFGQGTKVEIERTVAAPSVFIFPPSDEQLKSGTASVVCLLNNFYPREAKVQWKVDNALQSGNSQESVTEQDSKDSTYSLSSTLTLSKADYEKHKVYACEVTHQGLSSPVTKSFNRGEC
notes: as for B1
B8: GpH7-A5/GpH7-B3 variant Q295_03V/GpL16-k0 (He Ab) (antibody, human IgG1, kappa)
heavy 1: not shown
heavy 2: not shown
light: DIVMTQSPLSLPVTPGEPASISCQASESLVHSNRNTYLHWYLQKPGQSPQLLIYKVSNRFSGVPDRFSGSGSGTDFTLKISRVEAEDVGVYYCSQNTHVPPTFGQGTKVEIERTVAAPSVFIFPPSDEQLKSGTASVVCLLNNFYPREAKVQWKVDNALQSGNSQESVTEQDSKDSTYSLSSTLTLSKADYEKHKVYACEVTHQGLSSPVTKSFNRGEC
notes: as for B1
B9: GpH7-A5/GpH7-B3 variant Q295_04F/GpL16-k0 (He Ab) (antibody, human IgG1, kappa)
heavy 1: not shown
heavy 2: not shown
light: DIVMTQSPLSLPVTPGEPASISCQASESLVHSNRNTYLHWYLQKPGQSPQLLIYKVSNRFSGVPDRFSGSGSGTDFTLKISRVEAEDVGVYYCSQNTHVPPTFGQGTKVEIERTVAAPSVFIFPPSDEQLKSGTASVVCLLNNFYPREAKVQWKVDNALQSGNSQESVTEQDSKDSTYSLSSTLTLSKADYEKHKVYACEVTHQGLSSPVTKSFNRGEC
notes: as for B1
B10: GpH7-A5/GpH7-B3 variant S267_03V/GpL16-k0 (He Ab) (antibody, human IgG1, kappa)
heavy 1: not shown
heavy 2: not shown
light: DIVMTQSPLSLPVTPGEPASISCQASESLVHSNRNTYLHWYLQKPGQSPQLLIYKVSNRFSGVPDRFSGSGSGTDFTLKISRVEAEDVGVYYCSQNTHVPPTFGQGTKVEIERTVAAPSVFIFPPSDEQLKSGTASVVCLLNNFYPREAKVQWKVDNALQSGNSQESVTEQDSKDSTYSLSSTLTLSKADYEKHKVYACEVTHQGLSSPVTKSFNRGEC
notes: as for B1
B11: GpH7-A5/GpH7-B3 variant P271_13S/GpL16-k0 (He Ab) (antibody, human IgG1, kappa)
heavy 1: not shown
heavy 2: not shown
light: DIVMTQSPLSLPVTPGEPASISCQASESLVHSNRNTYLHWYLQKPGQSPQLLIYKVSNRFSGVPDRFSGSGSGTDFTLKISRVEAEDVGVYYCSQNTHVPPTFGQGTKVEIERTVAAPSVFIFPPSDEQLKSGTASVVCLLNNFYPREAKVQWKVDNALQSGNSQESVTEQDSKDSTYSLSSTLTLSKADYEKHKVYACEVTHQGLSSPVTKSFNRGEC
notes: as for B1

T1 sequence (P12314 16-292): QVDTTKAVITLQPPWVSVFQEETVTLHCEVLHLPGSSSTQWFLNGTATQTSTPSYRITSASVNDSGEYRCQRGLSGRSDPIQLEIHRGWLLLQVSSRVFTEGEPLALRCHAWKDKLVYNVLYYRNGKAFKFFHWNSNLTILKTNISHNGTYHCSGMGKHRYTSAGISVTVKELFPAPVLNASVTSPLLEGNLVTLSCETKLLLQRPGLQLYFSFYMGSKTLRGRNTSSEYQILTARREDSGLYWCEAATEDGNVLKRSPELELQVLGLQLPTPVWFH

The assay concerns the target T1, FcγRIa extracellular domain with C-terminal His tag (human, UniProt P12314 16-292).
T1 construct: extracellular domain; Expressed in FreeStyle293 cells; analyte in Biacore; also called FcgRI; FcgRIa
The assay can be described thus: SPR Biacore, antibody captured, FcγRIa analyte; vs GpH7-A5/GpH7-B3/GpL16-k0 = 100. Background: In SPR one partner is held on a chip, and binding of the other changes the refractive index at the surface.
In the case of B1, the He/Con_1a is 102 relative (control = 100).

Turning to B2, the He/Con_1a was 109 relative (control = 100).

B3: the He/Con_1a is 110 relative (control = 100).

As for B4, the He/Con_1a is 103 relative (control = 100).

Regarding B5, the He/Con_1a is 101 relative (control = 100).

For B6, the He/Con_1a is 103 relative (control = 100).

For the molecule B7, the He/Con_1a is 103 relative (control = 100).

For B8, the He/Con_1a was 104 relative (control = 100).

B9: the He/Con_1a was 102 relative (control = 100).

On to B10, for which the He/Con_1a is 106 relative (control = 100).

With B11, the He/Con_1a was 102 relative (control = 100).
